The values below come from patent US20060257397A1 (CRUCELL HOLLAND B V, published 2006).

One experiment deals with T1, human CD1a (human, UniProt P06126 17-327).
T1 construct: whole, on cells; also called C1R-CD1a; CR1-CD1a
The experiment can be described thus: flow cytometry, phage antibody on C1R cells transfected with CD1a. The procedure: In total, three selection rounds were performed and after both the second and third round, phage antibodies were tested for specific binding on a variety of cell-types, i.e., cultured DCs, PBLs, tonsil and synovial fluid cell suspensions, several cell lines including K562, U266, IM9, U937, THP, CEM, Fravel, HL60, Raji, RPMI8226, HepgII, HELA, HT29 and Jurkatt, a C1R cell line transfected with the molecule CD1a, and A431 cell lines transfected with the molecules CD80, CD83, and CD86. For staining of cells, 100 μl of the phage antibodies were blocked by adding 50 μl of PBS containing 4% milk powder for 15 minutes at room temperature. Next, 5×10⁵ cells in 50 μl of PBS containing 1% BSA were added to the blocked phage antibodies and the mixture obtained was incubated on ice for one hour. After that, the obtained mixture was washed three times with 200 μl PBS containing 1% BSA. To detect cell-bound phage antibodies, the cells were incubated with 20 μl of a 1:800 dilution of sheep anti-M13 polyclonal antibody for 20 minutes on ice. Thereafter, the cells were washed with PBS containing 1% BSA and incubated with 20 μl of a 1:700 dilution of PE-conjugated donkey anti-sheep polyclonal antibody for 20 minutes on ice. […]
(In flow cytometry, cells or beads pass a laser one at a time.)

The next experiment has as its target T2, CD83 (UniProt Q01151 20-205, limits assumed).
T2 construct: whole, on cells; also called A431 cell line transfected with CD83
T2 sequence (looked up): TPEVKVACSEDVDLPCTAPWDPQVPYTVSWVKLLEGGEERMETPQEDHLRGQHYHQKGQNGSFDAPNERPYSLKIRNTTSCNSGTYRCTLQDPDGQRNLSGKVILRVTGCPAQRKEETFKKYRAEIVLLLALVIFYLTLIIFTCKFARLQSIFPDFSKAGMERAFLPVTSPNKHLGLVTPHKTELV
The experiment can be described thus: flow cytometry, phage antibody on transfected A431 cells. Here is the method:
(§1) In total, three selection rounds were performed and after both the second and third round, phage antibodies were tested for specific binding on a variety of cell-types, i.e., cultured DCs, PBLs, tonsil and synovial fluid cell suspensions, several cell lines including K562, U266, IM9, U937, THP, CEM, Fravel, HL60, Raji, RPMI8226, HepgII, HELA, HT29 and Jurkatt, a C1R cell line transfected with the molecule CD1a, and A431 cell lines transfected with the molecules CD80, CD83, and CD86. For staining of cells, 100 μl of the phage antibodies were blocked by adding 50 μl of PBS containing 4% milk powder for 15 minutes at room temperature. Next, 5×10⁵ cells in 50 μl of PBS containing 1% BSA were added to the blocked phage antibodies and the mixture obtained was incubated on ice for one hour. After that, the obtained mixture was washed three times with 200 μl PBS containing 1% BSA. To detect cell-bound phage antibodies, the cells were incubated with 20 μl of a 1:800 dilution of sheep anti-M13 polyclonal antibody for 20 minutes on ice. Thereafter, the cells were washed with PBS containing 1% BSA and incubated with 20 μl of a 1:700 dilution of PE-conjugated donkey anti-sheep polyclonal antibody for 20 minutes on ice.
(§2) To visualize DCs the cells were washed again with PBS containing 1% BSA, stained with 10 μl 1:10 diluted FITC-conjugated anti-CD1a antibody (BD PharMingen) and suspended in 200 μl of PBS containing 1% BSA. Flow cytometric analyses were performed using a FACScan (Becton Dickinson).
(§3) The twenty scFv phage antibodies derived from the selections described above bound exclusively to the cell line transfected with CD1a (see lower right panel of FIG. 2 for binding of the representative scFv phage antibody called SC02-113 to the CD1a-transfected cell line). […]

The next experiment concerns the target T3, CD80 (UniProt P33681 35-288, limits assumed).
T3 construct: whole, on cells; also called A431 cell line transfected with CD80
T3 sequence (looked up): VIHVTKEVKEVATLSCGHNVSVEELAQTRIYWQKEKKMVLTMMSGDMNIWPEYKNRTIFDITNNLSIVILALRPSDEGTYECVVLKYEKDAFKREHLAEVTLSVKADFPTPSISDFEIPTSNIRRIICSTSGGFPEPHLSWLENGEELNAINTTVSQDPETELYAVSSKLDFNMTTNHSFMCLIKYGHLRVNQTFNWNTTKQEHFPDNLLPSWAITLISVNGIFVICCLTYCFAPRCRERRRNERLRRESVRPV
Described as above. The procedure:
as §1, §2, §3

The target of a further experiment is T4, CD86 (UniProt P42081 24-329, limits assumed).
T4 construct: whole, on cells; also called A431 cell line transfected with CD86
T4 sequence (looked up): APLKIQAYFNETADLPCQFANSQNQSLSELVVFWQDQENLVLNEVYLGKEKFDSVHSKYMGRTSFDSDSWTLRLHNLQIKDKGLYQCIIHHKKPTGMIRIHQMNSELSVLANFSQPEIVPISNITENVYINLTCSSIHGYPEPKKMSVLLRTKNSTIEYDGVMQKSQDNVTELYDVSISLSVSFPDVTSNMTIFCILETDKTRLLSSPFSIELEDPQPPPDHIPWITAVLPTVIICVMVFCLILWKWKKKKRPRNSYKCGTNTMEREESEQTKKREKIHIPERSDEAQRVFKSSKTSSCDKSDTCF
The experiment is described as above. The procedure:
as §1, §2, §3

T1 sequence (P06126 17-327): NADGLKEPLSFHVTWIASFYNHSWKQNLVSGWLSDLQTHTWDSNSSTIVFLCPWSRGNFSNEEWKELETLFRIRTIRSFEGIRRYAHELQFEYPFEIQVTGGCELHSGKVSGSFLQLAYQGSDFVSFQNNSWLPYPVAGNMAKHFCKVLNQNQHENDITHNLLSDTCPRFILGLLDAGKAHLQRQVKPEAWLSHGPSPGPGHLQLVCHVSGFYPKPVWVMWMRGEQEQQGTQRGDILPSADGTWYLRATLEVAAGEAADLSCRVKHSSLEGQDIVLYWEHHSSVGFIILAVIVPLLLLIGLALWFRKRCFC

B1: scFv phage antibody SC02-115 (scFv)
scFv: QVQLVQSGAEAKKPGASVKVSCKASGYTFTGYYMHWVRQAPGQGLEWMGWISAYNGNTNYAQKLQGRVTMTTDTSTSTAYMELRSLRSDDTAVYYCARSQMPSYFDYWGQGTLVTVSRGGGGSGGGGSGGGGSSELTQDPAVSVALGQTVRITCQGDSLRSYYASWYQQKPGQAPVLVIYGKNNRPSGIPDRFSGSSSGNTASLTITGAQAEDEADYYCNSRDSSGNHVVFGGGTKLTVLG
Consider B1, for which the binding result with human CD1a is “binds”; in the experiment with CD83, “no binding”; in the experiment with CD80, “no binding”; with CD86, “no binding”.
